# B1: 1-aminocyclopropane-1-carboxylic acid oxidase (ACCO1) (Malus domestica) (protein)
# chain: MATFPVVDLSLVNGEERAATLEKINDACENWGFFELVNHGMSTELLDTVEKMTKDHYKKTMEQRFKEMVAAKGLDDVQSEIHDLDWESTFFLRHLPSSNISEIPDLEEEYRKTMKEFAVELEKLAEKLLDLLCENLGLEKGYLKKVFYGSKGPNFGTKVSNYPPCPKPDLIKGLRAHSDAGGIILLFQDDKVSGLQLLKDGEWVDVPPMHHSIVINLGDQIEVITNGKYKSVMHRVIAQSDGTRMSIASFYNPGNDSFISPAPAVLEKKTEDAPTYPKFVFDDYMKLYSGLKFQAKEPRFEAMKAKESTPVATA
# Substrate: NC1(C(=O)O)CC1
# Experiment: purified protein
# Details: Fe(II), ascorbate, bicarbonate active-site Fe(II); Arg175, Arg244 and Ser246 affect ACC binding
protein,measurement,value
B1,Km,51 µM

# From publication PMC3828642, “1-Aminocyclopropane-1-carboxylic acid oxidase reaction mechanism and putative post-translational activities of the ACCO protein” (AoB Plants, 2013)
